Read-outs that look alike come from different tables or passages of the source.
B1: U9 G5 (ssRNA)
RNA: UUUUGUUUU
B2: U9 A5 (ssRNA)
RNA: UUUUAUUUU
B3: U9 C5 (ssRNA)
RNA: UUUUCUUUU
B4: U9 G4 (ssRNA)
RNA: UUUGUUUUU
B5: U9 G6 (ssRNA)
RNA: UUUUUGUUU

How the values were obtained:
Experiment in all cases: fluorescence anisotropy
U2AF2 12L (RRM1-RRM2) [1] = biological target: T1, U2AF2 12L (RRM1-RRM2) (UniProt P26368 141-342)
U2AF2 12L G297D [2] = biological target: T2, U2AF2 12L G297D (UniProt P26368 141-342, G297D)
T2 sequence (P26368 141-342 G297D): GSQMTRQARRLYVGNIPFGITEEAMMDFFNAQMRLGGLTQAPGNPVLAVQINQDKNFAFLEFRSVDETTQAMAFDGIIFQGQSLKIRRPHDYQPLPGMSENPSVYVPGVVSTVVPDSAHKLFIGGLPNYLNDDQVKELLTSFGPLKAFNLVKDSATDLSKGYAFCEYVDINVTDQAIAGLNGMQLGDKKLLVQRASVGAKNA

U2AF2 12L R227N = U2AF2 12L R227N (UniProt P26368 141-342, R227N)
U2AF2 12L R227N, sequence (P26368 141-342 R227N): as the sequence (P26368 141-342 G297D) above, with R87N, D157G counted along it

U2AF2 12L K225N = U2AF2 12L K225N (UniProt P26368 141-342, K225N)
U2AF2 12L K225N, sequence (P26368 141-342 K225N): as the sequence (P26368 141-342 G297D) above, with K85N, D157G counted along it

U2AF2 12L G297D [3] = biological target: T2, U2AF2 12L G297D; remark: listed apart in the source
U2AF2 12L (RRM1-RRM2) [4] = biological target: T1, U2AF2 12L (RRM1-RRM2); remark: listed apart in the source
U2AF2 12L (RRM1-RRM2) [5] = biological target: T1, U2AF2 12L (RRM1-RRM2); remark: listed apart in the source

T1 sequence (P26368 141-342): as the sequence (P26368 141-342 G297D) above, with D157G counted along it

Row | Binder | binding signal (U2AF2 12L G297D [2]) | binding signal (U2AF2 12L R227N) | binding signal (U2AF2 12L K225N) | binding signal (U2AF2 12L (RRM1-RRM2) [5]) | also measured
1 | B1 | ~2 fold penalty | > 5 fold penalty | > 5 fold penalty | – | binding signal (U2AF2 12L (RRM1-RRM2) [1]): < 2 fold Kd increase vs N5
2 | B2 | ~2 fold penalty | > 5 fold penalty | > 5 fold penalty | – | –
3 | B3 | – | – | – | – | binding signal (U2AF2 12L G297D [3]): ~2 fold penalty; binding result (U2AF2 12L (RRM1-RRM2) [4]): binds
4 | B4 | – | – | – | ~3 fold Kd increase vs N5 | –
5 | B5 | – | – | – | ~3 fold Kd increase vs N5 | –

Source: publication PMC9128377
